Source: PMC314469, “Protein Interaction Networks by Proteome Peptide Scanning” (PLoS Biology, 2004)

T1: Yfr024 SH3 (LSB3_YEAST), P43603
T1 chain: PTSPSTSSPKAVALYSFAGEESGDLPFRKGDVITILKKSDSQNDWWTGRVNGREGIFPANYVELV

T2: Boi1 SH3 (BOI1_YEAST), P38041
T2 chain: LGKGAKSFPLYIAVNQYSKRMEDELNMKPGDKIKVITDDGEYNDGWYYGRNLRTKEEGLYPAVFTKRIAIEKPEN

T3: Yhr016c SH3 (YSC84_YEAST), P32793
T3 chain: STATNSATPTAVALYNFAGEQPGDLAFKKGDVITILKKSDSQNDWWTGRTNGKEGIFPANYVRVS

T4: Boi2 SH3 (BOI2_YEAST), P39969
T4 chain: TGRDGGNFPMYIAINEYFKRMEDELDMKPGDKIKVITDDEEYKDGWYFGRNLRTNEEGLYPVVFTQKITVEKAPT

T5: Rvs167 SH3 (RV167_YEAST), P39743
T5 chain: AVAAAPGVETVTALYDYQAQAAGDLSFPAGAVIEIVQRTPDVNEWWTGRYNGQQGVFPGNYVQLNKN


Key:
Test in all cases: SPOT array
[1] = biological target: T1, Yfr024 SH3 (LSB3_YEAST), P43603
[2] = biological target: T2, Boi1 SH3 (BOI1_YEAST), P38041
[3] = biological target: T3, Yhr016c SH3 (YSC84_YEAST), P32793
[4] = biological target: T4, Boi2 SH3 (BOI2_YEAST), P39969
[5] = biological target: T5, Rvs167 SH3 (RV167_YEAST), P39743

| normalised SPOT signal, Boehringer light units (BLU); mean over the file's lines of this peptide [1] | normalised SPOT signal, Boehringer light units (BLU); mean over the file's lines of this peptide [2] | normalised SPOT signal, Boehringer light units (BLU); mean over the file's lines of this peptide [3] | normalised SPOT signal, Boehringer light units (BLU); mean over the file's lines of this peptide [4] | normalised SPOT signal, Boehringer light units (BLU); mean over the file's lines of this peptide [5] | Binder |
| --- | --- | --- | --- | --- | --- |
| 2940 | 119 | 270 | 77.6 | 276 | LRKPSAPKRMSSIS [YMR086W 52-65] |
| 3330 | 197 | 257 | 90.5 | 229 | LRKPRAPMRNVIIT [YER141W 449-462] |
| 68.1 | 200 | 0 | 28.8 | 2.2 | LRDPVIPIKLAAEK [YGL195W 2564-2577] |
| 6280 | 2960 | 1260 | 55.6 | 5620 | LPAPPPPPRRGPAP [YOR181W 341-354] |
| 1210 | 55.6 | 155 | 49 | 20.7 | LRSPQNPNRMTAVI [YPL115C 235-248] |
| 586 | 233 | 227 | 63 | 82.7 | LSKPSKPLKEIRFD [YAR003W 101-114] |
| 322 | 1.5 | 124 | 78.1 | 28.8 | LRLPEIPPKGDFDV [YFL036W 1327-1340] |
| 1230 | 89.9 | 171 | 35.8 | 28.8 | LPAPHRPEKYKERF [YGR154C 67-80] |
| 33900 | 53500 | 12200 | 48500 | 15000 | LPPPRSPNRPTLSD [YER158C 363-376] |
| 197 | 121 | 49 | 32.9 | 27.6 | LQNPLGPERTFLIM [YLR253W 491-504] |
| 164 | 66.9 | 37.4 | 42 | 1.6 | LRIPETPVKKSPLV [YJL187C 191-204] |
| 201 | 67.9 | 77.3 | 43.1 | 1.5 | LSSPNVPGKPQVAY [YKL216W 131-144] |
| 8010 | 825 | 1090 | 234 | 947 | LRRPIFPGRDYRHQ [YBL016W 218-231] |
| 15100 | 125 | 6800 | 48.9 | 3860 | LPLPTLPDRQLFQT [YPL115C 570-583] |
| 11400 | 37.7 | 3380 | 51.2 | 769 | LPVPPPPVRPSISF [YDL140C 239-252] |
| 4360 | 375 | 196 | 57.9 | 64.4 | LPVPQLPPKLLVYP [YBR279W 17-30] |
| 27100 | 197 | 2000 | 44.9 | 252 | LSLPRLPNKHHWPL [YAR068W 116-129] |
| 1670 | 113 | 195 | 49.8 | 78.2 | LQIPPLPLKLLTPV [YGR204W 307-320] |
| 15900 | 20400 | 18400 | 353 | 1930 | LPPPIIPLRKYGHN [YGR233C 693-706] |
| 21100 | 236 | 3240 | 322 | 2540 | LRSPNTPRRLRKTL [YDR545W 312-325] |
| 35600 | 6110 | 59600 | 31.1 | 23300 | LNSPDLPERTKLRN [YDL225W 445-458] |
| 1520 | 47.3 | 485 | 162 | 1.2 | LMPPDSPPRMTENT [YBR275C 1790-1803] |
